Source: publication PMC9304148
One block for each substance: values may come before it.

Legend:
[1] = target: CarHCfe (Cystobacter ferrugineus CarH), purified (Cystobacter ferrugineus); assay: SEC; analytical size exclusion, Superdex200 HR 10/30; 100 ul of 50-100 uM pure apoprotein alone, in the dark; dimer by apparent Mr
[2] = target: CarHCfe (Cystobacter ferrugineus CarH), purified (Cystobacter ferrugineus); assay: SEC; analytical size exclusion, Superdex200 HR 10/30; 100 ul of 50-100 uM protein after 15-min incubation with five-fold molar excess of AdoCbl, in the dark; dimer by apparent Mr
[3] = target: CarHCfu (Cystobacter fuscus CarH), purified (Cystobacter fuscus); assay: SEC; analytical size exclusion, Superdex200 HR 10/30; 100 ul of 50-100 uM pure apoprotein alone, in the dark; dimer by apparent Mr
[4] = target: CarHCfu (Cystobacter fuscus CarH), purified (Cystobacter fuscus); assay: SEC; analytical size exclusion, Superdex200 HR 10/30; 100 ul of 50-100 uM protein after 15-min incubation with five-fold molar excess of AdoCbl, in the dark; dimer by apparent Mr
[5] = system: CarHCfu (Cystobacter fuscus DSM 2262 (strain as in the genome table)); assay: EMSA; conditions: EMSA: 0.1 M KCl, 10 mM MgCl2, 25 mM Tris-HCl pH 8, 1 mM DTT, 10% glycerol, 200 ng/ul BSA, 1 ug salmon sperm DNA, 1.2 nM probe, AdoCbl 5-fold over protein, 37 °C

stoichiometry N [1]: 2
stoichiometry N [2]: 2
Substance: CarHCfe (Cystobacter ferrugineus CarH), purified (natural protein)

stoichiometry N [3]: 2
stoichiometry N [4]: 2
Substance: CarHCfu (Cystobacter fuscus CarH), purified (natural protein)

Substance: Pcrt Cfu 170 bp
Kd [5]: 0.0347 µM
